# Earlier results, collected in US8791066B2 (Novo Nordisk A/S, priority 2004, dated 2014).
substance,measurement,setting,value
GLP-1(7-36)amide,time until peak concentrations return to baseline / cleared from the circulation,administered subcutaneously,≤ 90 min
same,time to complete clearance,in vivo,12 to 13 min
